B1: Sr33 CC1-125 (truncated portion of the CC domain of Sr33) (other)
chain: MDIVTGAIAKLIPKLGELLVGEYKLHKGVKKNIEDLLKELKTMNAALIKIGEVPPDQLDSQDKLWADEVRELSYVIEDAVDKFLVRVHGVEPDDNTNGFKGLMKRTTKLLKKVVDKHGIAHAIKD
notes: Expressed as both bait and prey in yeast two-hybrid; The fused GAL4 domains are not included; also called Sr33 CC125
B2: Sr33 CC1-225 (CC-NB domain of Sr33) (other)
chain: MDIVTGAIAKLIPKLGELLVGEYKLHKGVKKNIEDLLKELKTMNAALIKIGEVPPDQLDSQDKLWADEVRELSYVIEDAVDKFLVRVHGVEPDDNTNGFKGLMKRTTKLLKKVVDKHGIAHAIKDIKKELQEVAARRDRNKFDGIASIPTEAIDPRLRALYIEAAELVGIYGKRDQELMSLLSLEGDDASTKKLKKVSIVGFGGLGKTTLAKAVYEKIKGDFDCH
notes: Expressed as both bait and prey in yeast two-hybrid; The fused GAL4 domains are not included; also called Sr33 CC225

Biological target: the molecule itself
Experiment: directed yeast two-hybrid, self-association (same fragment as bait and prey)

Protein	binding result
B1	no binding
B2	no binding

— patent US20160138042A1 (COMMONWEALTH SCIENTIFIC AND INDUSTRIAL RESEARCH ORGANISATION, published 2016)
